# Bridge positions count the residues as written; N and C are the ends. Ends that are not written are not given here.
# T1: endogenous gC1qR/p32 of tumor cells and tissues (extracts of MDA-MB-435 cells, BT549 cells, MDA-MB-435 tumor … (human, UniProt Q07021 74-282))
# T1 construct: mature; 33 kD band in cell extracts; in tumor xenograft extracts an additional 75 kD band was also identified as gC1qR/p32; also called gC1q/p32 receptor; p32/p33/gC1qR/HABP1
# T1 sequence (looked up): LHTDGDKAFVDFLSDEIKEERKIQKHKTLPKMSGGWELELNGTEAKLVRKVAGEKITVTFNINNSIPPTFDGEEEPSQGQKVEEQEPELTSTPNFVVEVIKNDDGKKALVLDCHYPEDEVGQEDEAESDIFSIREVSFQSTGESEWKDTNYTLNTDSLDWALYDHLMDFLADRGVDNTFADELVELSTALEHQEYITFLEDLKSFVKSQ
# T2: gC1qR/p32 at the cell surface (C8161 cells transfected with p32 cDNA); MDA-MB-435 and MDA-MB-435 S35 cells; … (human, UniProt Q07021 74-282)
# T2 construct: whole, on cells; also called cell surface p32; cell surface gC1qR/p32
# T2 sequence (looked up): T1 sequence (looked up)
# B1: biotinylated CRV peptide (CRVRTRSGC) (peptide)
# peptide: CRVRTRSGC
# modifications: disulfide 1-9 (inferred); also: biotinylated, site not given here
# notes: Negative control in the pull-down; also called control peptide
# B2: biotinylated CREKA peptide (peptide)
# peptide: CREKA
# modifications: also: biotinylated, site not given here
# notes: as for B1
# Assays:
# [1] = molecular target: purified gC1qR/p32 protein (coated onto microtiter wells) (human) (UniProt Q07021); experiment: phage binding to purified p32 coated on microtiter wells, plaque assay
# [2] = molecular target: purified gC1qR/p32 protein (coated onto microtiter wells) (human) (UniProt Q07021); experiment: inhibition of phage binding to purified p32 on wells; competitor LyP-1 phage; 20 µg/ml mAb
# [3] = molecular target: gC1qR/p32 at the cell surface (C8161 cells transfected with p32 cDNA; MDA-MB-435 and MDA-MB-435 S35 cells; Raji cells) (human) (UniProt Q07021); experiment: inhibition of LyP-1 phage binding to Raji cells; competitor LyP-1 phage; 40 µg/ml mAb
# [4] = molecular target: T1, endogenous gC1qR/p32 of tumor cells and …; experiment: pull-down from MDA-MB-435 cell extract with biotinylated peptide on streptavidin beads, anti-p32 immunoblot
# From the text: A tumor homing peptide, CREKA (SEQ ID NO: 3), and a peptide CRV which resembles Lyp-1 in its amino acid composition and cyclic structure (SEQ ID NO: 4, […]), were used as negative controls. (a) Left panel: silver staining of Lyp-1 bound proteins. The arrow indicates a specific 33 kD band, which was identified as gC1q/p32R by mass spectrometry. Right panel: immunoblot of total cell extract (Tot lysate) and proteins bound to Lyp-1 and control peptides using a monoclonal antibody against gC1q/p32 receptor. The antibody recognizes a band of 33 kD in the total proteins lysate and in the Lyp-1 pull down. Anti gC1q/p32 receptor reactive bands are not detected in the pull downs from both control peptides. […] The monoclonal antibody against gC1qR/p32 recognized a 75 kD and a 33 kD band only in the Lyp-1 peptide pull down (b-right panel).
# A tumor homing peptide, CREKA (SEQ ID NO:3), and a peptide CRV which resembles Lyp-1 in its amino acid composition and cyclic structure (SEQ ID NO:4, […]), were used as negative controls. The Lyp-1 bound proteins were visualized using silver staining and immunobloting. […] The arrow indicates a specific 33 kD band, which was identified as gC1qR/p32 by mass spectrometry. […] The antibody recognizes a band of 33 kD in the total proteins lysate and in the Lyp-1 pull down. Anti gC1qR/p32 reactive bands are not detected in the pull downs from both control peptides.
# [5] = molecular target: T2, gC1qR/p32 at the cell surface (C8161 …); experiment: FACS of FITC-peptide on live MDA-MB-435 cells transfected with p32 siRNA or control siRNA
# Procedure: 48 hours after transfection, inhibition of p32 expression was checked by immunoblot analysis and immunostaining (upper panels). β-actin was used as a control. (Lower panels) cells transfected with p32 siRNA or control siRNA were incubated for 1 h at 4 °C in the presence of 10 μM FITC conjugated LyP-1 peptide or a control peptide, […] (ARAL, SEQ ID NO: 5), which has same overall charge as LyP-1. Cells incubated in the absence of peptide served as negative control. Down-regulation of p32 expression reduced LyP-1 binding to the cells (left panel), but control peptide fluorescence was unaffected (right panel). A representative experiment out of three is shown. C. […] Insertless phage was used to determine background phage binding. The results are representative of three independent experiments and are expressed as percentage of phage binding (±SD), with binding of LyP-1 phage in the presence of mIgG1 set as 100%.
# MDA-MB-435 cells were transiently transfected with gC1qR/p32-specific or control siRNAs. […] The amount of fluorescence in living cells was analyzed by FACS. Cells incubated in the absence of peptide served as FITC negative control.
molecule,measurement,setting,value
LyP-1 phage (phage displaying the LyP-1 peptide),fold binding over insertless control phage,[1],60 fold
mouse monoclonal anti-gC1qR/p32 antibody 60.11,percent reduction of LyP-1 phage binding,[2],90%
same,percent reduction of LyP-1 binding,[3],50%
B1,binding result,[4],no binding
"ARALPSQRSR (also: FITC conjugated, site not given here, Same overall charge as LyP-1) [FITC conjugated control peptide ARALPSQRSR]",binding result,[5],no binding (tested: 10 µM)
B2,binding result,[4],no binding
